Results published in patent US20110097340A1 (SCHERING, published 2011).

T1: wild-type hVEGF121 (human, UniProt P15692-9 27-147)
T1 sequence (looked up): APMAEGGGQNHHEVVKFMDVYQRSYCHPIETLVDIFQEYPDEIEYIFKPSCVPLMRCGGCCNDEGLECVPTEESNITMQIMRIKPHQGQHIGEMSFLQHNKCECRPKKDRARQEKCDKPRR

T2: hVEGF121-M81A (human, UniProt P15692-9 27-147)
T2 construct: Transiently expressed in CHO-K1 cells; culture supernatant used
T2 sequence (looked up): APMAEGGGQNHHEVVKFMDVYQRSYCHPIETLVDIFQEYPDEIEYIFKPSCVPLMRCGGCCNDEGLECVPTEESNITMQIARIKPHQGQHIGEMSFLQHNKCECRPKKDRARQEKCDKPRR

T3: hVEGF121-G88S (human, UniProt P15692-9 27-147, G88S)
T3 construct: Transiently expressed in CHO-K1 cells; culture supernatant used
T3 sequence (looked up): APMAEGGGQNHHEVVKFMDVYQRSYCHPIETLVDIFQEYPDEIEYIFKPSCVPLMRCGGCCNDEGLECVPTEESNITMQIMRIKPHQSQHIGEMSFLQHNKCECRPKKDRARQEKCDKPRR

T4: hVEGF121-Q89A (human, UniProt P15692-9 27-147, Q89A)
T4 construct: Transiently expressed in CHO-K1 cells; culture supernatant used
T4 sequence (looked up): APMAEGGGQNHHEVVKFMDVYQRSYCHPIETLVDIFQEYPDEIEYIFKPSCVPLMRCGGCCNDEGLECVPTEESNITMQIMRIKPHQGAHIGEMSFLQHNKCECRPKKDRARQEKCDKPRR

T5: hVEGF121-G92A (human, UniProt P15692-9 27-147, G92A)
T5 construct: Transiently expressed in CHO-K1 cells; culture supernatant used
T5 sequence (looked up): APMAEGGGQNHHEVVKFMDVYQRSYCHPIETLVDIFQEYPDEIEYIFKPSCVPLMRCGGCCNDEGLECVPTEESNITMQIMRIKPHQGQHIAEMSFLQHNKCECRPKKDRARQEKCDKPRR

T6: murine VEGF165 (murine, UniProt Q00731-2 27-190)
T6 construct: also called mVEGF165; rMu-VEGF165
T6 sequence (looked up): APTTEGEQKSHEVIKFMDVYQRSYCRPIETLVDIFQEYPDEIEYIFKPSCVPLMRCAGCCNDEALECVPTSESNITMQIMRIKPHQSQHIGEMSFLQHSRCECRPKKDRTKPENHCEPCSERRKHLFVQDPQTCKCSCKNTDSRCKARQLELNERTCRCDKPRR


Tests used:
human VEGF165 [1] = target: T7, human VEGF165 (human, UniProt P15692 207-395); assay: cell-based or functional assay
human VEGF165 [2] = target: T7, human VEGF165; assay: cell-based or functional assay; remark: listed apart in the source
human VEGF165 [3] = target: T7, human VEGF165; assay: cell-based or functional assay; remark: listed apart in the source
Target sequence in this assay (P15692 other isoform, or with tags, fused parts or gaps limits assumed): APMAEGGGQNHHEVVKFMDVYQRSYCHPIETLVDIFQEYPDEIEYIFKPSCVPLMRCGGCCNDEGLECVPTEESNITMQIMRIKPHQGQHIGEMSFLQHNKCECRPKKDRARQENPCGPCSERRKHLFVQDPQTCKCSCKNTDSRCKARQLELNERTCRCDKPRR

human VEGF165 [4] = target: T7, human VEGF165; assay: sandwich ELISA, antibody coated
Protocol: (§1) Mutants were transiently expressed in CHO-K1 cells, and cell supernatants were collected for binding analysis by ELISA.
(§2) The plate was blocked with 30% ChemiBlock™ reagent (Millipore) in PBS for one hour at room temperature, and 30, 60, or 100 μl of CHO-K1 culture supernatant for each mutant, or 1 μg/ml of wild-type hVEGF₁₂₁, recombinant hVEGF₁₆₅, or recombinant mVEGF₁₆₅, was added to appropriate wells. After one hour of incubation, the plate was washed and incubated with a biotinylated goat polyclonal anti-VEGF antibody for one hour at room temperature. Detection was performed with HRP-conjugated streptavidin, followed by TMB chromogenic substrate (Calbiochem) using manufacturer protocol.

wild-type hVEGF121 = target: T1, wild-type hVEGF121; assay: sandwich ELISA, antibody coated
Protocol: as §1, §2

hVEGF121-M81A = target: T2, hVEGF121-M81A; assay: sandwich ELISA, antibody coated
Protocol: as §1, §2

hVEGF121-G88S [5] = target: T3, hVEGF121-G88S; assay: sandwich ELISA, antibody coated
Protocol: as §1, §2

hVEGF121-Q89A = target: T4, hVEGF121-Q89A; assay: sandwich ELISA, antibody coated
Protocol: as §1, §2

hVEGF121-G92A = target: T5, hVEGF121-G92A; assay: sandwich ELISA, antibody coated
Protocol: as §1, §2

murine VEGF165 [6] = target: T6, murine VEGF165; assay: Biacore; IgG2, Biacore: weak binding, KD >100 nM
hVEGF121-G88S [7] = target: T3, hVEGF121-G88S; assay: sandwich ELISA, antibody coated, CHO-K1 supernatant
murine VEGF165 [8] = target: T6, murine VEGF165; assay: Biacore 2000, mVEGF165 amine-coupled on C1 chip, antibody injected
Protocol: (§3) The VEGF binding affinity of these IgGs was tested on a Biacore 2000® by injecting the antibodies over a very low density antigen surface. Human or murine VEGF₁₆₅ was immobilized via standard amine coupling methods to flow cells on a C1 (planar carboxy surface) chip. Approximately 85 RU of each antigen was immobilized and a reference flow cell was activated and blocked. Antibodies were injected over the chip surface for 400 seconds at two different concentrations, after which dissociation was monitored. Data was analyzed by Scrubber® using double referencing and fitting with a 1:1 interaction. Regenerations were performed with 90 mM HCl with 500 mM NaCl.

human VEGF165 [9] = target: T7, human VEGF165; assay: Biacore 2000, IgG2 captured on Protein A/G, hVEGF165 injected, 1:1 fit
Protocol: (§4) Dilution and running buffer for these experiments was HBS-EP (Biacore) with 1:50 dilution of Chemiblocker® (Chemicon). […] Antibody concentrations were approximately 0.5 μg/ml. hVEGF₁₆₅ expressed from sf21 cells was injected over five minutes at 30 μl/minute using the Kinject feature with 15 minute dissociation over fc1 and 2. […] Regenerations were performed with two injections of 100 mM HCl at 50 μl/minutes for twelve seconds each. Data was processed in Scrubber2 and fit by a 1:1 Langmuir interaction model after double referencing of the control flow cell and blank injections.

human VEGF165 [10] = target: T7, human VEGF165; assay: Biacore competition, inhibition of hVEGF165 binding to immobilized VEGF-R1
Protocol: (§5) VEGF receptor (R&D Systems) was immobilized on the CM5 chip at a density of approximately […] via amine coupling (Biacore). VEGF-R2 was immobilized on fc2 and VEGF-R1 was immobilized on fc4. Flow cells 1 and 3 served as references, and were activated and blocked in the same manner as the receptor immobilized flow cells. […] Samples were incubated for at least one hour prior to initiation of the Biacore analysis run. […] Samples were injected at 10 μl/minute for 1.5 minutes over all flow cells.
(§6) For data analysis, the slope of a linear portion of association (30 seconds to one minute) of the association phase was determined with a linear fit. […] Data was plotted in GraphPad Prism and fit with a sigmoidal dose response curve to calculate the EC₅₀.

human VEGF165 [11] = target: T7, human VEGF165; assay: Biacore competition, inhibition of hVEGF165 binding to immobilized VEGF-R2
Protocol: as §5, §6

human VEGF165 [12] = target: T7, human VEGF165; assay: Biacore 2000, hVEGF165 amine-coupled on C1 chip, antibody injected, 1:1 fit
Protocol: as §3
Target sequence in this assay (P15692 other isoform, or with tags, fused parts or gaps limits assumed): as above

human VEGF165 [13] = target: T7, human VEGF165; assay: Biacore, IgG2 (summary table); lower end of the range of IgG2 Biacore results
Protocol: as §4

murine VEGF165 [14] = target: T6, murine VEGF165; assay: sandwich ELISA, antibody coated; epitope ELISA, fold over CHO background: at background, no binding seen
Protocol: as §2

human VEGF165 [15] = target: T7, human VEGF165; assay: Biacore, IgG2 (summary table)
Protocol: as §4

Row | HPP: sf21-hVEGF165, IgG2 (IC50) (human VEGF165 [1]) | Inhibition of HUVEC proliferation, EC50 (µg/ml), HEK 293 hVEGF165 (human VEGF165 [2]) | Raw data (ELISA signal) (human VEGF165 [4]) | fold binding over CHO background (human VEGF165 [4]) | Raw data (ELISA signal) (wild-type hVEGF121) | fold binding over CHO background (wild-type hVEGF121) | Raw data (ELISA signal) (hVEGF121-M81A) | fold binding over CHO background (hVEGF121-M81A) | Raw data (ELISA signal) (hVEGF121-G88S [5]) | fold binding over CHO background (hVEGF121-G88S [5]) | Raw data (ELISA signal) (hVEGF121-Q89A) | fold binding over CHO background (hVEGF121-Q89A) | Raw data (ELISA signal) (hVEGF121-G92A) | fold binding over CHO background (hVEGF121-G92A) | Kd (murine VEGF165 [6]) | binding result (hVEGF121-G88S [7]) | Kd (human VEGF165 [9]) | koff (human VEGF165 [9]) | kon (human VEGF165 [9]) | EC50 (human VEGF165 [10]) | Binder | other results
1 | 0.15 µg/mL | 0.66 µg/mL | 2.09 | 23 fold | 2.65 | 29.1 fold | 0.868 | 9.5 fold | 0.0778 | 0.9 fold | 0.319 | 3.5 fold | 2.08 | 22.8 fold | > 100 nM | no binding | 1.24 nM | 0.000286 s⁻¹ | 230000 M⁻¹ s⁻¹ | 0.159 µg/mL | XPA.10.064 IgG2 (antibody, V domains shown, Converted to IgG with gamma-2 heavy chain constant region; Expressed in 293E cells; also called parental XPA.10.064; VPA.10.064) VH: EVQLVQSGAEVRKPGASVKVSCKASGYSFTGHYIHWVRQAPGQGLEWMGWINPYSGGTNFPREFQGRVTMTRDTSVNTVYMELTRLTSDDTSVYYCARDHRIVGGLDYWGQGTLVTVSS VL: SYVLTQPPSASGTPGQRVTISCSGSSSNIGINYVYWYQQLPGTAPKLLIYRNDQRPSGVPDRFSGSKSGTSASLAISGLRSEDEADYYCATWDDSLSGVVFGGGTKVTVL | HUVEC proliferation, geometric mean IC50 (human VEGF165 [3]): 1.32 nM; Kd (murine VEGF165 [8]): 197 nM; EC50 (human VEGF165 [11]): 0.129 µg/mL; Kd (human VEGF165 [12]): 1.71 nM; koff (human VEGF165 [12]): 0.000335 s⁻¹; kon (human VEGF165 [12]): 193000 M⁻¹ s⁻¹; Kd (human VEGF165 [13]): 1.24 to 1.71 nM; fold binding over CHO background (murine VEGF165 [14]): 0.7 fold
2 | 0.24 µg/mL | 0.68 µg/mL | 2.66 | 29.2 fold | 2.9 | 31.8 fold | 1.22 | 13.4 fold | 0.0951 | 1 fold | 0.296 | 3.3 fold | 2.78 | 30.5 fold | > 100 nM | no binding | 1.66 nM | 0.000279 s⁻¹ | 168000 M⁻¹ s⁻¹ | 0.121 µg/mL | XPA.10.072 IgG2 (antibody, V domains shown, IgG2 (gamma-2 constant region); also called XPA.072; VPA.10.072) VH: RLQLVQSGAEVRKPGASVKVSCKASGYSFTGHYIHWARQAPGQGLEWMGWINPYSGGTNFPREFQGRVTMTRDTSVNTVYMELTRLTSDDTSVYYCARDHRIVGGLDYWGQGTLVTVSS VL: QSVLTQPPSASGTPGQRVTISCSGSSSNLGSNFVYWYQQLPGTAPKLLIYRNHQRPSGVPDRFSGSKSGTSASLAISGLRSEDEADYYCASWDDSLRVVVFGGGTKLTVL | HUVEC Proliferation Potency (HPP): HEK293-hVEGF165, IgG2 (IC50) (human VEGF165 [1]): 0.68 µg/mL; Kd (human VEGF165 [15]): 1.66 to 1.7 nM; EC50 (human VEGF165 [11]): 0.173 µg/mL; fold binding over CHO background (murine VEGF165 [14]): 1.1 fold
